Reference: patent publication US5180678A, “Uses of substantially pure interleukin-9 receptor” (Ludwig Institute for Cancer Research, priority 1992, dated 1993)

Assays:
TS1 cells = assay: Internalization of bound labelled rIL-9 (resistance to acid induced dissociation); type: cell-based, mouse; conditions: TS1 cells saturated at 4° C. with 3.3×10^-10 M labelled rIL-9, then 37° C.; after about one hour; acid pH 3.0 (FIG. 5)
Description: It is known that when cytokines are mixed with their receptors at 37° C., they bind thereto when incubated and this is generally followed by internalization of the cytokine. This is determined via testing for increased resistance to acid induced dissociation of bound radiolabel.
To test this for the labeled rIL-9, 7×10^6 TS1 cell/ml were incubated at 4° C. in binding medium as described supra, but lacking Na3 N, with either 3.3×10^-10 M labelled rIL-9, or this concentration of the labelled cytokine plus a 100 fold excess of unlabeled rIL-9. This saturates the cells. After three hours of incubation, the cells were washed with cold binding medium to remove unbound ligand, and the cells were transferred to medium lacking rIL-9, at a temperature of 37° C. At various time intervals, the cells were incubated for two minutes with either of 360 ul of binding medium, or with citrate buffer (50 mM, pH 2.5). Contact with citrate buffer, in effect, exposed the cells to a pH of 3.0.

T helper clone TUC2.15 = assay: IL-9 induced proliferation, thymidine incorporation; type: cell-based; conditions: resting TUC2.15 cells, saturating IL-9, thymidine incorporation day 3
Description: (§1) The correlation between IL-9 and proliferation of T4 cell lines in response to IL-9 was studied. Resting T cells were collected from two week cultures, and 2×10^6 cells were stimulated by antigen (KLH, 25 ug/ml) in the presence of 70×10^6 & spleen cells for four days. Blasts were isolated by centrifugation and IL-9 binding was determined following incubation with 7.5×10^-10 M labelled rIL-9. Resting cells which had not been restimulated were treated in parallel. Maximal IL-9 induced proliferation was measured by incubation of resting cells in microliter plates (50,000/well), either with or without saturating concentrations of IL-9. Radioactive thymidine incorporation, which was the manner in which proliferation was determined, was measured on day 3.

T helper clone TUC7.11 = assay: as above; type: cell-based; conditions: resting TUC7.11 cells, saturating IL-9, thymidine incorporation day 3
Description: as §1

T helper clone TUC7.33 = assay: as above; type: cell-based; conditions: resting TUC7.33 cells, saturating IL-9, thymidine incorporation day 3
Description: as §1

T helper clone TUC7.51 = assay: as above; type: cell-based; conditions: resting TUC7.51 cells, saturating IL-9, thymidine incorporation day 3
Description: as §1

IL-9R = biological target: T1, IL-9R (Mus musculus, UniProt Q01114); assay: IL-9 binding to resting and activated T helper clones; design: endogenous in cells; conditions: 7.5×10^-10 M labelled rIL-9
T1 sequence (Q01114 38-468): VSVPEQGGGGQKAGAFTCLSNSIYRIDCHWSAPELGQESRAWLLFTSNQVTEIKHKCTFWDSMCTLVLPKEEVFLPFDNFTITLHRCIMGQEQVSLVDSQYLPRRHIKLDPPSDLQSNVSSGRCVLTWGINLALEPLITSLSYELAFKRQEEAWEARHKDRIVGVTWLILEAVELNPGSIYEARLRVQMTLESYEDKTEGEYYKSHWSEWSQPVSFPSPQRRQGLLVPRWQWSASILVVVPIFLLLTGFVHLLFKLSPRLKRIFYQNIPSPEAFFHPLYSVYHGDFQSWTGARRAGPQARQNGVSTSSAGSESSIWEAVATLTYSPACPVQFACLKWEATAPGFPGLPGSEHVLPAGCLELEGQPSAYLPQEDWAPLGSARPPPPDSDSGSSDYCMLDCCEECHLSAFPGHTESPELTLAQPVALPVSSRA
Description: as §1

IL-9 binding Activated Cells (IL-9R; T helper clone TUC2.15, antigen (KLH) stimulated blasts): 532 mol/cell
IL-9 binding Resting Cells (IL-9R; T helper clone TUC2.15): 159 mol/cell
IL-9 binding Resting Cells (IL-9R; T helper clone TUC7.11): < 10 mol/cell
IL-9 binding Activated Cells (IL-9R; T helper clone TUC7.33, antigen (KLH) stimulated blasts): < 10 mol/cell
IL-9 binding Resting Cells (IL-9R; T helper clone TUC7.33): 21 mol/cell
IL-9 binding Activated Cells (IL-9R; T helper clone TUC7.51, antigen (KLH) stimulated blasts): 514 mol/cell
IL-9 binding Resting Cells (IL-9R; T helper clone TUC7.51): 94 mol/cell
Substance: IL-9: lymphokine interleukin-9, T-cell derived growth factor; in Tables II and III the 125I-labelled recombinant form is used
internalization of IL-9 (TS1 cells): most of the IL-9 was internalized
IL-9 induced proliferation Stimulatin Index (T helper clone TUC2.15): 11.2
IL-9 induced proliferation Stimulatin Index (T helper clone TUC7.11): 1.1
IL-9 induced proliferation Stimulatin Index (T helper clone TUC7.33): 0.8
IL-9 induced proliferation Stimulatin Index (T helper clone TUC7.51): 23.8
